Results: the supplement of paper PMC11316812
± gives the standard deviation of the averaged measurements.

Legend:
hTERT-HMEC = experiment: percentage of EdU-negative (G0-arrested) nuclei per well, 72 h; higher = more G0 arrest; details: reference: sequence is the full UniProt precursor, the tested protein was the secreted form or ectodomain
MCF7 = experiment: as above; details: reference: sequence is the full UniProt precursor, the tested protein was the secreted form or ectodomain
[1] = protein concentration 0.0208571 µM
[2] = protein concentration 0.208571 µM
[3] = protein concentration 0.0072075 µM
[4] = protein concentration 0.072075 µM
[5] = protein concentration 0.0357143 µM
[6] = protein concentration 0.357143 µM
[7] = protein concentration 0.00625 µM
[8] = protein concentration 0.0625 µM
[9] = protein concentration 0.0225 µM
[10] = protein concentration 0.02225 µM
[11] = protein concentration 0.2225 µM
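Further: secreted proteins added to cultured cells, EdU pulse at the end, nuclei found by Hoechst imaging, EdU status from nuclear versus surrounding ring intensity ratio, PBS as neutral control.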

Sequence: MGKNKLLHPSLVLLLLVLLPTDASVSGKPQYMVLVPSLLHTETTEKGCVLLSYLNETVTVSASLESVRGNRSLFTDLEAENDVLHCVAFAVPKSSSNEEVMFLTVQVKGPTQEFKKRTTVMVKNEDSLVFVQTDKSIYKPGQTVKFRVVSMDENFHPLNELIPLVYIQDPKGNRIAQWQSFQLEGGLKQFSFPLSSEPFQGSYKVVVQKKSGGRTEHPFTVEEFVLPKFEVQVTVPKIITILEEEMNVSVCGLYTYGKPVPGHVTVSICRKYSDASDCHGEDSQAFCEKFSGQLNSHGCFYQQVKTKVFQLKRKEYEMKLHTEAQIQEEGTVVELTGRQSSEITRTITKLSFVKVDSHFRQGIPFFGQVRLVDGKGVPIPNKVIFIRGNEANYYSNATTDEHGLVQFSINTTNVMGTSLTVRVNYKDRSPCYGYQWVSEEHEEAHHTAYLVFSPSKSFVHLEPMSHELPCGHTQTVQAHYILNGGTLLGLKKLSFYYLIMAKGGIVRTGTHGLLVKQEDMKGHFSISIPVKSDIAPVARLLIYAVLPTGDVIGDSAKYDVENCLANKVDLSFSPSQSLPASHAHLRVTAAPQSVCALRAVDQSVLLMKPDAELSASSVYNLLPEKDLTGFPGPLNDQDNEDCINRHNVYINGITYTPVSSTNEKDMYSFLEDMGLKAFTNSKIRKPKMCPQLQQYEMHGPEGLRVGFYESDVMGRGHARLVHVEEPHTETVRKYFPETWIWDLVVVNSAGVAEVGVTVPDTITEWKAGAFCLSEDAGLGISSTASLRAFQPFFVELTMPYSVIRGEAFTLKATVLNYLPKCIRVSVQLEASPAFLAVPVEKEQAPHCICANGRQTVSWAVTPKSLGNVNFTVSAEALESQELCGTEVPSVPEHGRKDTVIKPLLVEPEGLEKETTFNSLLCPSGGEVSEELSLKLPPNVVEESARASVSVLGDILGSAMQNTQNLLQMPYGCGEQNMVLFAPNIYVLDYLNETQQLTPEIKSKAIGYLNTGYQRQLNYKHYDGSYSTFGERYGRNQGNTWLTAFVLKTFAQARAYIFIDEAHITQALIWLSQRQKDNGCFRSSGSLLNNAIKGGVEDEVTLSAYITIALLEIPLTVTHPVVRNALFCLESAWKTAQEGDHGSHVYTKALLAYAFALAGNQDKRKEVLKSLNEEAVKKDNSVHWERPQKPKAPVGHFYEPQAPSAEVEMTSYVLLAYLTAQPAPTSEDLTSATNIVKWITKQQNAQGGFSSTQDTVVALHALSKYGAATFTRTGKAAQVTIQSSGTFSSKFQVDNNNRLLLQQVSLPELPGEYSMKVTGEGCVYLQTSLKYNILPEKEEFPFALGVQTLPQTCDEPKAHTSFQISLSVSYTGSRSASNMAIVDVKMVSGFIPLKPTVKMLERSNHVSRTEVSSNHVLIYLDKVSNQTLSLFFTVLQDVPVRDLKPAIVKVYDYYETDEFAIAEYNAPCSKDLGNA
- percentage of EdU-negative (hTERT-HMEC; [1]): 4.57 ± 0.3%
- percentage of EdU-negative (hTERT-HMEC; [2]): 5.37 ± 0.84%
- percentage of EdU-negative (MCF7; [1]): 23 ± 0.6%
- percentage of EdU-negative (MCF7; [2]): 27.8 ± 2.3%

Sequence: MGKPWLRALQLLLLLGASWARAGAPRCTYTFVLPPQKFTGAVCWSGPASTRATPEAANASELAALRMRVGRHEELLRELQRLAAADGAVAGEVRALRKESRGLSARLGQLRAQLQHEAGPGAGPGADLGAEPAAALALLGERVLNASAEAQRAAARFHQLDVKFRELAQLVTQQSSLIARLERLCPGGAGGQQQVLPPPPLVPVVPVRLVGSTSDTSRMLDPAPEPQRDQTQRQQEPMASPMPAGHPAVPTKPVGPWQDCAEARQAGHEQSGVYELRVGRHVVSVWCEQQLEGGGWTVIQRRQDGSVNFFTTWQHYKAGFGRPDGEYWLGLEPVYQLTSRGDHELLVLLEDWGGRGARAHYDGFSLEPESDHYRLRLGQYHGDAGDSLSWHNDKPFSTVDRDRDSYSGNCALYQRGGWWYHACAHSNLNGVWHHGGHYRSRYQDGVYWAEFRGGAYSLRKAAMLIRPLKL [Q8NI99]
- percentage of EdU-negative (hTERT-HMEC; [3]): 4.22 ± 0.45%
- percentage of EdU-negative (hTERT-HMEC; [4]): 5.15 ± 0.94%
- percentage of EdU-negative (MCF7; [3]): 23.9 ± 1.3%
- percentage of EdU-negative (MCF7; [4]): 25.7 ± 0.84%

Sequence: MGKSASKQFHNEVLKAHNEYRQKHGVPPLKLCKNLNREAQQYSEALASTRILKHSPESSRGQCGENLAWASYDQTGKEVADRWYSEIKNYNFQQPGFTSGTGHFTAMVWKNTKKMGVGKASASDGSSFVVARYFPAGNVVNEGFFEENVLPPKK [Q9H4G4]
- percentage of EdU-negative (hTERT-HMEC; [5]): 4.55 ± 0.31%
- percentage of EdU-negative (hTERT-HMEC; [6]): 7.6 ± 0.95%
- percentage of EdU-negative (MCF7; [5]): 25.6 ± 0.71%
- percentage of EdU-negative (MCF7; [6]): 24.5 ± 0.79%

Sequence: MGKSESQMDITDINTPKPKKKQRWTPLEISLSVLVLLLTIIAVTMIALYATYDDGICKSSDCIKSAARLIQNMDATTEPCTDFFKYACGGWLKRNVIPETSSRYGNFDILRDELEVVLKDVLQEPKTEDIVAVQKAKALYRSCINESAIDSRGGEPLLKLLPDIYGWPVATENWEQKYGASWTAEKAIAQLNSKYGKKVLINLFVGTDDKNSVNHVIHIDQPRLGLPSRDYYECTGIYKEACTAYVDFMISVARLIRQEERLPIDENQLALEMNKVMELEKEIANATAKPEDRNDPMLLYNKMTLAQIQNNFSLEINGKPFSWLNFTNEIMSTVNISITNEEDVVVYAPEYLTKLKPILTKYSARDLQNLMSWRFIMDLVSSLSRTYKESRNAFRKALYGTTSETATWRRCANYVNGNMENAVGRLYVEAAFAGESKHVVEDLIAQIREVFIQTLDDLTWMDAETKKRAEEKALAIKERIGYPDDIVSNDNKLNNEYLELNYKEDEYFENIIQNLKFSQSKQLKKLREKVDKDEWISGAAVVNAFYSSGRNQIVFPAGILQPPFFSAQQSNSLNYGGIGMVIGHEITHGFDDNGRNFNKDGDLVDWWTQQSASNFKEQSQCMVYQYGNFSWDLAGGQHLNGINTLGENIADNGGLGQAYRAYQNYIKKNGEEKLLPGLDLNHKQLFFLNFAQVWCGTYRPEYAVNSIKTDVHSPGNFRIIGTLQNSAEFSEAFHCRKNSYMNPEKKCRVW
- percentage of EdU-negative (hTERT-HMEC; [7]): 4.08 ± 0.18%
- percentage of EdU-negative (hTERT-HMEC; [8]): 5.51 ± 0.24%
- percentage of EdU-negative (MCF7; [7]): 25 ± 1.8%
- percentage of EdU-negative (MCF7; [8]): 27.41 ± 0.064%

Sequence: MGLEKPQSKLEGGMHPQLIPSVIAVVFILLLSVCFIASCLVTHHNFSRCKRGTGVHKLEHHAKLKCIKEKSELKSAEGSTWNCCPIDWRAFQSNCYFPLTDNKTWAESERNCSGMGAHLMTISTEAEQNFIIQFLDRRLSYFLGLRDENAKGQWRWVDQTPFNPRRVFWHKNEPDNSQGENCVVLVYNQDKWAWNDVPCNFEASRICKIPGTTLN [Q8WXI8]
- percentage of EdU-negative (hTERT-HMEC; [9]): 6.12 ± 0.23%
- percentage of EdU-negative (hTERT-HMEC; protein concentration 0.225 µM): 6.07 ± 0.51%
- percentage of EdU-negative (MCF7; [9]): 23.5 ± 0.48%
- percentage of EdU-negative (MCF7; protein concentration 0.225 µM): 25.2 ± 0.46%

Sequence: MGLFRGFVFLLVLCLLHQSNTSFIKLNNNGFEDIVIVIDPSVPEDEKIIEQIEDMVTTASTYLFEATEKRFFFKNVSILIPENWKENPQYKRPKHENHKHADVIVAPPTLPGRDEPYTKQFTECGEKGEYIHFTPDLLLGKKQNEYGPPGKLFVHEWAHLRWGVFDEYNEDQPFYRAKSKKIEATRCSAGISGRNRVYKCQGGSCLSRACRIDSTTKLYGKDCQFFPDKVQTEKASIMFMQSIDSVVEFCNEKTHNQEAPSLQNIKCNFRSTWEVISNSEDFKNTIPMVTPPPPPVFSLLKISQRIVCLVLDKSGSMGGKDRLNRMNQAAKHFLLQTVENGSWVGMVHFDSTATIVNKLIQIKSSDERNTLMAGLPTYPLGGTSICSGIKYAFQVIGELHSQLDGSEVLLLTDGEDNTASSCIDEVKQSGAIVHFIALGRAADEAVIEMSKITGGSHFYVSDEAQNNGLIDAFGALTSGNTDLSQKSLQLESKGLTLNSNAWMNDTVIIDSTVGKDTFFLITWNSLPPSISLWDPSGTIMENFTVDATSKMAYLSIPGTAKVGTWAYNLQAKANPETLTITVTSRAANSSVPPITVNAKMNKDVNSFPSPMIVYAEILQGYVPVLGANVTAFIESQNGHTEVLELLDNGAGADSFKNDGVYSRYFTAYTENGRYSLKVRAHGGANTARLKLRPPLNRAAYIPGWVVNGEIEANPPRPEIDEDTQTTLEDFSRTASGGAFVVSQVPSLPLPDQYPPSQITDLDATVHEDKIILTWTAPGDNFDVGKVQRYIIRISASILDLRDSFDDALQVNTTDLSPKEANSKESFAFKPENISEENATHIFIAIKSIDKSNLTSKVSNIAQVTLFIPQANPDDIDPTPTPTPTPTPDKSHNSGVNISTLVLSVIGSVVIVNFILSTTI [Q14CN2]
- percentage of EdU-negative (hTERT-HMEC; [9]): 6.239 ± 0.015%
- percentage of EdU-negative (hTERT-HMEC; protein concentration 0.225 µM): 66 ± 6.4%
- percentage of EdU-negative (MCF7; [9]): 26.84 ± 0.26%
- percentage of EdU-negative (MCF7; protein concentration 0.225 µM): 30.6 ± 2%

Sequence: MGLGPVFLLLAGIFPFAPPGAAAEPHSLRYNLTVLSWDGSVQSGFLTEVHLDGQPFLRCDRQKCRAKPQGQWAEDVLGNKTWDRETRDLTGNGKDLRMTLAHIKDQKEGLHSLQEIRVCEIHEDNSTRSSQHFYYDGELFLSQNLETKEWTMPQSSRAQTLAMNVRNFLKEDAMKTKTHYHAMHADCLQELRRYLKSGVVLRRTVPPMVNVTRSEASEGNITVTCRASGFYPWNITLSWRQDGVSLSHDTQQWGDVLPDGNGTYQTWVATRICQGEEQRFTCYMEHSGNHSTHPVPSGKVLVLQSHWQTFHVSAVAAAAIFVIIIFYVRCCKKKTSAAEGPELVSLQVLDQHPVGTSDHRDATQLGFQPLMSDLGSTGSTEGA
- percentage of EdU-negative (hTERT-HMEC; [10]): 5.41 ± 0.075%
- percentage of EdU-negative (hTERT-HMEC; [11]): 6.78 ± 1.8%
- percentage of EdU-negative (MCF7; [10]): 24.7 ± 0.99%
- percentage of EdU-negative (MCF7; [11]): 26.3 ± 1.6%

Sequence: MGLGTLSPRMLVWLVASGIVFYGELWVCAGLDYDYTFDGNEEDKTETIDYKDPCKAAVFWGDIALDDEDLNIFQIDRTIDLTQNPFGNLGHTTGGLGDHAMSKKRGALYQLIDRIRRIGFGLEQNNTVKGKVPLQFSGQNEKNRVPRAATSRTERIWPGGVIPYVIGGNFTGSQRAMFKQAMRHWEKHTCVTFIERSDEESYIVFTYRPCGCCSYVGRRGNGPQAISIGKNCDKFGIVVHELGHVIGFWHEHTRPDRDNHVTIIRENIQPGQEYNFLKMEPGEVNSLGERYDFDSIMHYARNTFSRGMFLDTILPSRDDNGIRPAIGQRTRLSKGDIAQARKLYRCPACGETLQESNGNLSSPGFPNGYPSYTHCIWRVSVTPGEKIVLNFTTMDLYKSSLCWYDYIEVRDGYWRKSPLLGRFCGDKLPEVLTSTDSRMWIEFRSSSNWVGKGFAAVYEAICGGEIRKNEGQIQSPNYPDDYRPMKECVWKITVSESYHVGLTFQSFEIERHDNCAYDYLEVRDGTSENSPLIGRFCGYDKPEDIRSTSNTLWMKFVSDGTVNKAGFAANFFKEEDECAKPDRGGCEQRCLNTLGSYQCACEPGYELGPDRRSCEAACGGLLTKLNGTITTPGWPKEYPPNKNCVWQVVAPTQYRISVKFEFFELEGNEVCKYDYVEIWSGLSSESKLHGKFCGAEVPEVITSQFNNMRIEFKSDNTVSKKGFKAHFFSDKDECSKDNGGCQHECVNTMGSYMCQCRNGFVLHDNKHDCKEAECEQKIHSPSGLITSPNWPDKYPSRKECTWEISATPGHRIKLAFSEFEIEQHQECAYDHLEVFDGETEKSPILGRLCGNKIPDPLVATGNKMFVRFVSDASVQRKGFQATHSTECGGRLKAESKPRDLYSHAQFGDNNYPGQVDCEWLLVSERGSRLELSFQTFEVEEEADCGYDYVELFDGLDSTAVGLGRFCGSGPPEEIYSIGDSVLIHFHTDDTINKKGFHIRYKSIRYPDTTHTKK
- percentage of EdU-negative (hTERT-HMEC; protein concentration 0.014 µM): 4.501 ± 0.026%
- percentage of EdU-negative (hTERT-HMEC; protein concentration 0.14 µM): 5.35 ± 1.3%
- percentage of EdU-negative (MCF7; protein concentration 0.014 µM): 24.6 ± 2.5%
- percentage of EdU-negative (MCF7; protein concentration 0.14 µM): 29.6 ± 1.9%
